Target: SYT11 (UniProt Q9BT88)
Assay: co-IP with anti-Myc, blot for GFP-SYT11
Conditions: reference: Myc-JNK1 wild type

JNK1 (from UniProt P45983) Myc-JNK1 Y185F
binding against the reference (sites Y185): lost

JNK1 (from UniProt P45983) Myc-JNK1 T183A
binding against the reference (sites T183): lost

Reference: publication PMC9241269
